From patent publication US9527896B2, “Stabilized p53 peptides and uses thereof” (DANA-FARBER CANCER INSTITUTE, INC., priority 2007, dated 2016) come the findings set out here.

The nature of one data set: circular dichroism. The conditions noted are these: water; pH 7.0; 20 °C; 10-50 uM.
The next data set has as its system RKO cells. The experiment in a line: Annexin V binding as an indicator of apoptosis, RKO cells. The data set is classed as cell-based. The conditions noted are these: 24 hours. The text has this: FIG. 9 Annexin V binding as an indicator of apoptosis.
Another data set concerns the target T1, HDM2 (Homo sapiens, UniProt Q00987).
T1 construct: Co-Immunoprecipitation of FITC-SAH-p53 Peptides and Endogenous HDM2; endogenous in cells; host or cells: SJSA-1 osteosarcoma cells
In words: Kd (nM). The source says: The patent's description of the figure: FIGS. 1A-1F Synthesis, Sequence, and Biochemical Analysis of SAH-p53 Peptides. FIG. 1A Non-natural amino acids were synthesized as described and cross-linked by ruthenium-catalyzed ring-closing olefin metathesis. […] Note: UAH-p53-8 is the “unstapled” form of SAH-p53-8.

The target in another data set is T2, Native HDM2 (Homo sapiens, UniProt Q00987).
T2 construct: Co-Immunoprecipitation of FITC-SAH-p53 Peptides and Endogenous HDM2; endogenous in cells; host or cells: SJSA-1 osteosarcoma cells
The experiment in a line: Co-immunoprecipitation of FITC-SAH-p53 peptides and endogenous HDM2. It is filed as cell-based. The conditions noted are these: SJSA-1 cells.

Bridge positions count the residues as written; N and C are the ends. Square brackets hold non-standard residues; d marks the D form. Peptide text beside a SMILES is read from it. R8 = C=CCCCCCC[C@@](C)(N)C(=O)O; S5 = C=CCCC[C@](C)(N)C(=O)O; βAla = NCCC(=O)O

T2 sequence (Q00987 whole entry): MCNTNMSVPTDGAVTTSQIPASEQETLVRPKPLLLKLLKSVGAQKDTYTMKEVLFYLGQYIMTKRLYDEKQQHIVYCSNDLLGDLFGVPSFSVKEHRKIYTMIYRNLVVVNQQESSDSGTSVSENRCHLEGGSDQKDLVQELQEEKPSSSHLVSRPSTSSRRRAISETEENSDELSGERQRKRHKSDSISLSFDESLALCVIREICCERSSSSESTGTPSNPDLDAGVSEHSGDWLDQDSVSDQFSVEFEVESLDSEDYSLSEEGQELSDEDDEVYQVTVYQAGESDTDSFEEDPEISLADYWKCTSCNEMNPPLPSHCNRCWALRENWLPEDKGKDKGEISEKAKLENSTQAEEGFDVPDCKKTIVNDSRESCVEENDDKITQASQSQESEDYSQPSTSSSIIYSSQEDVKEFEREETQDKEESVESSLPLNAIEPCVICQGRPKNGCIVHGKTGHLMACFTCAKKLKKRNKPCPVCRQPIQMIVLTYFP
T1 sequence (Q00987 whole entry, looked up): as the sequence (Q00987 whole entry) above
Procedure for Native HDM2: FIG. 8 SJSA-1 cells were incubated with FITC-peptides followed by lysis and anti-FITC pull down.
SJSA-1 osteosarcoma cells (1×10^6) were treated with FITC-p53 peptides (15 μM) in serum-free media for 4 hours, followed by serum replacement and additional 8 hour incubation. The cells were thoroughly washed with serum-containing media and PBS and exposed to lysis buffer (50 mM Tris pH 7.6, 150 mM NaCl, 1% Triton-X100, 1 mM PMSF, 1 U mL^−1 benzonase nuclease [EMD Biosciences] and complete protease inhibitor tablet [Roche]) at room temperature. All subsequent steps were all performed at 4° C. The extracts were centrifuged, and the supernatants were incubated with protein A/G sepharose (50 μL 50% bead slurry per 0.5 mL lysatcs; Santa Cruz Biotechnology). The pre-cleared supernatants (500 μL) were collected after centrifugation, incubated with 10 μL of goat-anti-FITC antibody (AbCam) for 1.5 h followed by protein A/G sepharose for an additional 1.5 hours. The immunoprecipitation reactions were pelleted and washed three times with lysis buffer. The precipitated proteins were suspended in SDS-containing loading buffer, boiled, and the supernatants were processed by SDS-PAGE on 4-12% Bis-Tris gels (Invitrogen). The proteins were blotted into Immobilon-P membranes (Millipore). […]

Consider `CC(=O)NCCC(=O)N[C@@H](CC(C)C)C(=O)N[C@@H](CO)C(=O)N[C@@H](CCC(N)=O)C(=O)N[C@@H](CCC(N)=O)C(=O)N[C@H](C(=O)N[C@@H](Cc1ccccc1)C(=O)N[C@]1(C)CCCCCCC=CCCC[C@@](C)(C(=O)N[C@@H](CCC(N)=O)C(=O)N[C@@H](CC(N)=O)C(N)=O)NC(=O)[C@H](CC(C)C)NC(=O)[C@H](CC(C)C)NC(=O)[C@H](CCCNC(=N)N)NC(=O)[C@H](Cc2c[nH]c3ccccc23)NC(=O)[C@H](CC(C)C)NC(=O)[C@H](CC(N)=O)NC1=O)[C@@H](C)O` [SAH-p53-6] (Ac-[βAla]LSQQTF[R8]NLWRLL[S5]QN-NH2; staple 8-15), for which, in the data set “circular dichroism”, the helicity was 14%. Besides, in the data set on RKO cells, the “apoptosis induction (annexin V, FACS)” value was “caused significant apoptosis”. Moreover, the Kd on HDM2 worked out at 56 ± 11 nM.
“FITC-SAH-p53-8: N-terminally fluoresceinated SAH-p53-8”: the “co-immunoprecipitation of native HDM2 (anti-FITC pull down)” value with Native HDM2 is listed as “co-immunoprecipitated”.
